Molecular target: AM receptor expressed in a cultured cell line (HEK293 cell line)
Assay: cell-based or functional assay

“amidated compound of Example 6: (IgG1 Fc Region)+(Linker K)+(AM (6-52)-Gly), amidated (Fc fusion)” showed a Relative activity (%) (vs. hAM), intracellular cAMP, compound at 10^-6 M of 70%.
Work on “amidated compound of Example 1: (IgG1 Fc Region)+(Linker S)+(AM-Gly), amidated (Fc fusion)” yielded a Relative activity (%) (vs. hAM), intracellular cAMP, compound at 10^-6 M of 27%.
“amidated compound of Example 2: (IgG1 Fc Region)+(Linker K)+(AM-Gly), amidated (Fc fusion)” gave a Relative activity (%) (vs. hAM), intracellular cAMP, compound at 10^-6 M of 11%.
“amidated compound of Example 9: (IgG4 Fc Region)+(Linker S)+(AM (6-52)-Gly), amidated (Fc fusion)” was tested, and the Relative activity (%) (vs. hAM), intracellular cAMP, compound at 10^-6 M was 54%.
For “amidated compound of Example 3: (IgG4 Fc Region)+(Linker S)+(AM-Gly), amidated (Fc fusion)”, the Relative activity (%) (vs. hAM), intracellular cAMP, compound at 10^-6 M was 27%.
Work on “amidated compound of Example 5: (IgG1 Fc Region)+(Linker S)+(AM (6-52)-Gly), amidated (Fc fusion)” yielded a Relative activity (%) (vs. hAM), intracellular cAMP, compound at 10^-6 M of 88%.
“amidated compound of Example 7: (IgG1 Fc Region)+(Linker S)+(AM (11-52)-Gly), amidated (Fc fusion)” showed a Relative activity (%) (vs. hAM), intracellular cAMP, compound at 10^-6 M of 68%.
“amidated compound of Example 10: (IgG4 Fc Region)+(Linker K)+(AM (6-52)-Gly), amidated (Fc fusion)” showed a Relative activity (%) (vs. hAM), intracellular cAMP, compound at 10^-6 M of 39%.
In the case of “amidated compound of Example 8: (IgG1 Fc Region)+(Linker K)+(AM (11-52)-Gly), amidated (Fc fusion)”, the Relative activity (%) (vs. hAM), intracellular cAMP, compound at 10^-6 M is reported as 48%.
In the case of “amidated compound of Example 11: (IgG4 Fc Region)+(Linker S)+(AM (11-52)-Gly), amidated (Fc fusion)”, the Relative activity (%) (vs. hAM), intracellular cAMP, compound at 10^-6 M is reported as 36%.
“amidated compound of Example 4: (IgG4 Fc Region)+(Linker K)+(AM-Gly), amidated (Fc fusion)” gave a Relative activity (%) (vs. hAM), intracellular cAMP, compound at 10^-6 M of 49%.
Substance “amidated compound of Example 12: (IgG4 Fc Region)+(Linker K)+(AM (11-52)-Gly), amidated (Fc fusion)” has a Relative activity (%) (vs. hAM), intracellular cAMP, compound at 10^-6 M of 48%.
